Data published in US20220033515A1.

Assays:
[1] = target: human vascular endothelial growth factor (hVEGF) (human) (UniProt P15692); assay: blocking ELISA: biotin-VEGF with hIgG, capture on Avastin
hVEGF165 (human) = hVEGF165 (human) (UniProt P15692); assay: competition ELISA of hIgG, hVEGF165; axis 'Conc (nM)'
Sequence of hVEGF165 (human) (P15692 other isoform, or with tags, fused parts or gaps limits assumed): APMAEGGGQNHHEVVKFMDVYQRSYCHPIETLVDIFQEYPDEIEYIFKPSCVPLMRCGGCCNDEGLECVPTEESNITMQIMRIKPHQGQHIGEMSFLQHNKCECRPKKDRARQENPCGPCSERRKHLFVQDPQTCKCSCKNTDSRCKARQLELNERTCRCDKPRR

Sequence of human vascular endothelial growth factor (hVEGF) (human) (P15692 other isoform, or with tags, fused parts or gaps limits assumed): as above

IC50 (read off the curve) [1]: 3 nM | IC50 (read off the curve) (hVEGF165 (human)): 3 nM
Substance: G6 hIgG (antibody)
